Test system: DBA/2 mice bearing Cloudman S91 melanomas
Settings: mouse, in vivo
Description: Br. J. Cancer (1990), 62, 919-922 C) Macmillan Press Ltd., 1990 A chelating derivative of oa-melanocyte stimulating hormone as a potential imaging agent for malignant melanoma D.R. Bard, C.G. Knight & D.P. Page-Thomas Strangeways Research Laboratory, Worts' Causeway, Cambridge CB] 4RN, UK Summary A chelating derivative of a-melanocyte stimulating hormone (MSH) has been synthesised, in which two molecules of the hormone are cross-linked by diethylenetriamine pentaacetic acid (DTPA). […] When DBA/2 mice bearing the same tumour were injected with bisMSH-DTPA labelled with the 'y-emitting isotope indium-1Il ("'In), the radioactivity became rapidly associated with the melanoma tissue. […] Uptake of radioactivity by the tumours was inhibited by a 200-fold molar excess of MSH, whereas uptake by liver, kidney, spleen, lung, brain, eye and skin was unaffected. We conclude that bisMSH-DTPA may offer an alternative to antibody targeting in the imaging of malignant melanoma. Malignant melanoma is characterised by a tendency to meta- stasise early and to be resistant to most conventional therapies. The initial surgical management of the disease would benefit if it were possible to discover whether metas- tasis had taken place and to which locations. […]

CSCC[C@H](NC(=O)[C@H](CO)NC(=O)[C@H](Cc1ccc(O)cc1)NC(=O)[C@H](CO)NC(=O)CN(CCN(CCN(CC(=O)O)CC(=O)N[C@@H](CO)C(=O)N[C@@H](Cc1ccc(O)cc1)C(=O)N[C@@H](CO)C(=O)N[C@@H](CCSC)C(=O)N[C@@H](CCC(=O)O)C(=O)N[C@@H](Cc1c[nH]cn1)C(=O)N[C@@H](Cc1ccccc1)C(=O)N[C@@H](CCCNC(=N)N)C(=O)N[C@@H](Cc1c[nH]c2ccccc12)C(=O)NCC(=O)N[C@@H](CCCCN)C(=O)N1CCC[C@H]1C(=O)N[C@H](C(N)=O)C(C)C)CC(=O)O)CC(=O)O)C(=O)N[C@@H](CCC(=O)O)C(=O)N[C@@H](Cc1c[nH]cn1)C(=O)N[C@@H](Cc1ccccc1)C(=O)N[C@@H](CCCNC(=N)N)C(=O)N[C@@H](Cc1c[nH]c2ccccc12)C(=O)NCC(=O)N[C@@H](CCCCN)C(=O)N1CCC[C@H]1C(=O)N[C@H](C(N)=O)C(C)C [bisMSH-DTPA]
crossing of the blood-brain barrier: unable to cross the blood-brain barrier
maximum level in the blood following injection (ip): about 0.8 µg ml-1

— article PMC1971552, “A chelating derivative of alpha-melanocyte stimulating hormone as a potential imaging agent for malignant melanoma” (British Journal of Cancer, 1990)
